Test results reported in paper PMC4227695, “Combining Anti-ERBB3 Antibodies Specific for Domain I and Domain III Enhances the Anti-Tumor Activity over the Individual Monoclonal Antibodies” (PLoS ONE, 2014).

Tests used:
ERBB3 on BT-474 cells = target: T1, ERBB3 on BT-474 cells (Homo sapiens, UniProt P21860); test: flow cytometry on cells; 0, 0.5, 2, 5 ug IgG with BT-474 cells (250,000 cells/assay); detected with FITC-conjugated anti-human Fc; settings: one partner purified
T1 construct: ERBB3/HER3 receptor on the surface of BT-474 breast cancer cells; Also used for the functional rows, where the cells were BT-474, NCI-N87 and ACHN; also called HER3; source: endogenous, BT-474 cells
T1 sequence (P21860 20-1342): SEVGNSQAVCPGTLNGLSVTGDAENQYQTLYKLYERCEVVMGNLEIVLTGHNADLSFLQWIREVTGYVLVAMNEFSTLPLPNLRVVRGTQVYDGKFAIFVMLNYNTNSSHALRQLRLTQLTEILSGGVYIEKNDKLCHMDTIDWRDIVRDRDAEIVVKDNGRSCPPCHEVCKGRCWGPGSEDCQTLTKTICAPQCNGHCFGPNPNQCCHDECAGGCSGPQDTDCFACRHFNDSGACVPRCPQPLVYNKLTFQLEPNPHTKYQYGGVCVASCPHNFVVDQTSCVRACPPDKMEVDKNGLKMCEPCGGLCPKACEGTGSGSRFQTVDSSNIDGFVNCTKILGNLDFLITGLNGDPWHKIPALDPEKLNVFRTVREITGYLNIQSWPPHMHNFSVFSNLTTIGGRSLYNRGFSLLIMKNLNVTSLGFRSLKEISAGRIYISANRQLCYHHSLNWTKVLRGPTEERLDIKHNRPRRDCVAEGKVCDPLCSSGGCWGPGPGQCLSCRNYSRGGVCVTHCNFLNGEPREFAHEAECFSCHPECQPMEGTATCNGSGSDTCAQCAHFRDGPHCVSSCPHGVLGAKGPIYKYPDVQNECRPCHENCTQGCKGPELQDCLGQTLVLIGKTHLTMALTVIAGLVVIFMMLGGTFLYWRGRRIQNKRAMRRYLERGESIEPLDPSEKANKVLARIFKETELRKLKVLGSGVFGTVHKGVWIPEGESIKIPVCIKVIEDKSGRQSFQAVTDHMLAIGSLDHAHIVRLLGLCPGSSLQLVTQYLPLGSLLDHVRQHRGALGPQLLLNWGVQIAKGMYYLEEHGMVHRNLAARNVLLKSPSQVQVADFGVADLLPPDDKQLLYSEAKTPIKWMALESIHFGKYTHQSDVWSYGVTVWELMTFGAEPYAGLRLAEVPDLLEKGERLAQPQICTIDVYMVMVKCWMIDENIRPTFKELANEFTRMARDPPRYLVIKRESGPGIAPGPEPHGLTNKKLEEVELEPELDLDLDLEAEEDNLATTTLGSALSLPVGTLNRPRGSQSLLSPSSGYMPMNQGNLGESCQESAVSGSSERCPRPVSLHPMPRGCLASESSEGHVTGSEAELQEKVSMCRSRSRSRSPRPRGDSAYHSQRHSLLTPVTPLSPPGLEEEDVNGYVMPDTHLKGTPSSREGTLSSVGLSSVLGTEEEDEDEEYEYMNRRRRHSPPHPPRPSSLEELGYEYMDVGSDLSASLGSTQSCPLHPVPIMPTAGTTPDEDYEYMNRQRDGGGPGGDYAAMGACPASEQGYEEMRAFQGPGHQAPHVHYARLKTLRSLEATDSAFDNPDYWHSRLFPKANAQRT

[1] = target: T2, intact ERBB3 extracellular domain (dI-IV, aa20-639) (Homo sapiens, UniProt P21860); test: ELISA; apparent; ERBB3 extracellular domain immobilised; 4-fold serial dilutions of IgG (1333-0.02 nM); detected with HRP-conjugated anti-human Fc
T2 construct: ERBB3/HER3 extracellular domain, domains I-IV, aa20-639; also called ERBB3 ECD; intact ERBB3 ECD; source: purified from culture supernatant by IMAC (HisTrap)
T2 sequence (P21860 20-639): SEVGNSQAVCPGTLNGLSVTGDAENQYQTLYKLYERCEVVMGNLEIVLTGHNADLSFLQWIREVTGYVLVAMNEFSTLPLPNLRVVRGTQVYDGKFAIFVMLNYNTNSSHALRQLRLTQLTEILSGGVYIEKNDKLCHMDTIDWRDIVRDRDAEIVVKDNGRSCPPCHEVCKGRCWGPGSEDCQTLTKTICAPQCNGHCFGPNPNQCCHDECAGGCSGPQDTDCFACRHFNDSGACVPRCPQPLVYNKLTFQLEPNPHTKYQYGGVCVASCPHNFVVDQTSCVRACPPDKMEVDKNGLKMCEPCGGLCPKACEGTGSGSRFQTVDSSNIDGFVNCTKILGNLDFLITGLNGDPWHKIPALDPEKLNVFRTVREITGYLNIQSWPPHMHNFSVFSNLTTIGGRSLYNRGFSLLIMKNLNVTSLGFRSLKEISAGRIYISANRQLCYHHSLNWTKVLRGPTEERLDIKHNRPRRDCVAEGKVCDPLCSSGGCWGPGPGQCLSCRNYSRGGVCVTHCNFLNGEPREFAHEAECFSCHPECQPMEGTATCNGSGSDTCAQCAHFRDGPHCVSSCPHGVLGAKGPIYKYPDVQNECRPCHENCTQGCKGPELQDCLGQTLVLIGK

[2] = target: T3, ERBB3 extracellular domain I (dI, aa20-207) (Homo sapiens, UniProt P21860); test: native gel or EMSA; IgG (30-40 ug) with dI at 1.5x and 3x molar ratios of IgG:dI, 4 uL reaction, 30 min at room temperature; 12.5% native acrylamide gel (PhastGel), stained; loss of free dI read; settings: both partners purified
T3 construct: ERBB3/HER3 domain I, aa20-207; Sub-cloned into pSEC-Tag2/HygroA (vector-supplied secretion signal; the vector may add further tag residues); source: HEK293, stably expressed, purified from culture supernatant (IMAC, HisTrap)
T3 sequence (P21860 20-207): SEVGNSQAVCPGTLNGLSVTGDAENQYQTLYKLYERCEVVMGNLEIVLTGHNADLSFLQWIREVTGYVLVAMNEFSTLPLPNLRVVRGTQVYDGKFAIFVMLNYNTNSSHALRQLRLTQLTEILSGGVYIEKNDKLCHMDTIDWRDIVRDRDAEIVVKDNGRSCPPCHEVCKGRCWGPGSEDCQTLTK

[3] = target: T2, intact ERBB3 extracellular domain …; test: pull-down; called immunoprecipitation: scFv coupled to AminoLink agarose (about 80 ug scFv, 20-50 fold excess) incubated 1 h at room temperature with 5 ug ERBB3 ECD fragment in 40 uL; washed 3x with PBS; supernatant and pellet fractions on SDS-PAGE; settings: both partners purified
[4] = target: T4, ERBB3 extracellular domain III (dIII, aa311-477) (Homo sapiens, UniProt P21860); test: as above; settings: both partners purified
T4 construct: ERBB3/HER3 domain III, aa311-477; Subcloned into pMTBiPV5HISa (vector-supplied secretion signal; the vector may add further tag residues); source: S2 cells, stably expressed, purified from culture supernatant (IMAC, HisTrap)
T4 sequence (P21860 311-477): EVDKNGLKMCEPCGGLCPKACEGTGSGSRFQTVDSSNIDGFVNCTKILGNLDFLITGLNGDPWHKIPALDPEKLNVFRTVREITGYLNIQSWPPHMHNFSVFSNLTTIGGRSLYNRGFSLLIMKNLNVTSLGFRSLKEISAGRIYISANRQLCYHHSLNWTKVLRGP

[5] = target: T5, ERBB3 extracellular domains III-IV (dIII-IV, aa310-616) (Homo sapiens, UniProt P21860); test: as above; settings: both partners purified
T5 construct: ERBB3/HER3 domains III-IV, aa310-616; source: purified from culture supernatant by IMAC (HisTrap)
T5 sequence (P21860 310-616): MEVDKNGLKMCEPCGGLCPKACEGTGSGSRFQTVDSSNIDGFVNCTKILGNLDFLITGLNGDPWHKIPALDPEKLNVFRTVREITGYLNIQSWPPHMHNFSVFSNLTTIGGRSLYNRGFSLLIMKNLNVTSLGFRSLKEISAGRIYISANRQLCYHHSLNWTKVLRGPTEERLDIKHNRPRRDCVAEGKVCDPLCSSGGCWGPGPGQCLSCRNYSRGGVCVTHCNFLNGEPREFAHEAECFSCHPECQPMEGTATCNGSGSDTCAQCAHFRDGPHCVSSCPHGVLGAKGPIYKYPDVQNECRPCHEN

[6] = target: T3, ERBB3 extracellular domain I (dI, …); test: as above; settings: both partners purified
[7] = target: T6, ERBB3 extracellular domains I-II (dI-II, aa20-329) (Homo sapiens, UniProt P21860); test: as above; settings: both partners purified
T6 construct: ERBB3/HER3 domains I-II, aa20-329; Sub-cloned into pSEC-Tag2/HygroA (vector-supplied secretion signal; the vector may add further tag residues); source: HEK293, stably expressed, purified from culture supernatant (IMAC, HisTrap)
T6 sequence (P21860 20-329): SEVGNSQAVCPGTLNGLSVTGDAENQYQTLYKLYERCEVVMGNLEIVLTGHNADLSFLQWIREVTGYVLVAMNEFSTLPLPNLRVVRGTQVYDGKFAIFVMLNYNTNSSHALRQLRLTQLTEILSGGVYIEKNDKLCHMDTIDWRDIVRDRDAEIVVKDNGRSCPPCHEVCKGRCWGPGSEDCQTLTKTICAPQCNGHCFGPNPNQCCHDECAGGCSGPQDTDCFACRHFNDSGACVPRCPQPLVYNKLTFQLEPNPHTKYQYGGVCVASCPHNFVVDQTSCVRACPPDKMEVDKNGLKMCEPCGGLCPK

Binder | binding result (ERBB3 on BT-474 cells) | Kd [1] [nM] | binding result [2] | binding result [3] | binding result [4] | binding result [5] | binding result [6] | binding result [7]
A5 anti-ERBB3 IgG (human IgG1 format) (antibody, V domains shown, A5 variable heavy (Vh) domain; human IgG1 heavy chain constant region; A5 variable light (Vl) domain; light chain constant domain; IgG1; also called A5 IgG; source: purified from conditioned media by protein A chromatography; copies: 2 + 2) VH: QVQLVQSGGGLVKPGGSLRLSCAASGFSFNTYDMNWVRQAPGKGLEWVSSISSSSSYIYYADSVKGRFTISRDNAKNSLYLQMNSLRAEDTAVYYCARDGVATTPFDYWGQGTLVTVSS VL: QSVLTQPPSVSGAPGQRVTISCTGSSSNIGAGYDVHWYQQLPGTAPKLLIYGNSNRPSGVPDRFSGSKSGTSASLAITGLQAEDEADYYCQSYDSSLSALFGGGTKLTVL | binds | 11.1 | no binding (tested: 1.5x and 3x Molar excess of antibody) |  |  |  |  | 
F4 anti-ERBB3 IgG (human IgG1 format) (antibody, V domains shown, F4 variable heavy (Vh) domain; human IgG1 heavy chain constant region; F4 variable light (Vl) domain; light chain constant domain; IgG1; also called F4 IgG; source: purified from conditioned media by protein A chromatography; copies: 2 + 2) VH: QVQLQESGGGLVKPGGSLRLSCAASGFTFSSYAMSWVRQAPGKGLEWVSTISGSGGSTYYADSVKGRFTISRDNSKNTLYLQMNSLRAEDTAVYYCAKGYSSSWSEVASGYWGQGTLVTVSS VL: DIVMTQSPSSLSASVGDRVTITCRASQGIRNDLGWYQQKAGKAPKLLIYAASSLQSGVPSRFSGSGSGTDFTLTISSLQPDDFATYFCQQAHSFPPTFGGGTKVEIK | binds | 4.8 | binds |  |  |  |  | 
A5 anti-ERBB3 single-chain Fv (scFv, V domains shown, A5 variable heavy (Vh) domain; linker of the scFv; A5 variable light (Vl) domain; Coupled to AminoLink agarose in the immunoprecipitations; also called A5 scFv) VH: QVQLVQSGGGLVKPGGSLRLSCAASGFSFNTYDMNWVRQAPGKGLEWVSSISSSSSYIYYADSVKGRFTISRDNAKNSLYLQMNSLRAEDTAVYYCARDGVATTPFDYWGQGTLVTVSS VL: QSVLTQPPSVSGAPGQRVTISCTGSSSNIGAGYDVHWYQQLPGTAPKLLIYGNSNRPSGVPDRFSGSKSGTSASLAITGLQAEDEADYYCQSYDSSLSALFGGGTKLTVL |  |  |  | binds | binds | binds |  | 
F4 anti-ERBB3 single-chain Fv (scFv, V domains shown, F4 variable heavy (Vh) domain; linker of the scFv; F4 variable light (Vl) domain; Coupled to AminoLink agarose in the immunoprecipitations; also called F4 scFv) VH: QVQLQESGGGLVKPGGSLRLSCAASGFTFSSYAMSWVRQAPGKGLEWVSTISGSGGSTYYADSVKGRFTISRDNSKNTLYLQMNSLRAEDTAVYYCAKGYSSSWSEVASGYWGQGTLVTVSS VL: DIVMTQSPSSLSASVGDRVTITCRASQGIRNDLGWYQQKAGKAPKLLIYAASSLQSGVPSRFSGSGSGTDFTLTISSLQPDDFATYFCQQAHSFPPTFGGGTKVEIK |  |  |  | binds |  |  | binds | binds
